From the supplement of paper PMC7125110
± gives the standard error. For some of these results: This sample holds only a part of the variants without activity.

B1: glmS ribozyme (parent)
chain: AUAAAAGCGCCAGAACUACAGAAAUGUAGUUGACGAGGAGGAGGUUUAUCGAAUUUUCGGCGGAUGCCUCCAAA

What was measured:
Settings in all cases: with glucosamine-6-phosphate
[1] = variants of: B1; assay: kcat; higher = faster cleavage; RNA array
Summary of the method: (§1)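 Tiles bearing barcoded ribozyme variants, transcribed in situ by E. coli RNA polymerase on sequenced MiSeq chips, were imaged over ~14 h at 37 °C using a hybridised Cy3 probe. Glucosamine-6-phosphate was supplied at 40 μM to 10 mM in HEPES/KCl/Mg(OAc)2 buffer. kobs came from one- or two-exponential decay fits to normalised per-tile medians, and weighted Michaelis–Menten fits then provided kcat and KM.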

[2] = variants of: B1; assay: KM; higher = weaker cofactor use; RNA array
Summary of the method: as §1

[3] = variants of: B1; assay: self-cleavage kobs at 640 uM GlcN6P; higher = faster cleavage; RNA array
Summary of the method: as §1

[4] = variants of: B1; assay: self-cleavage kobs at 2500 uM GlcN6P; higher = faster cleavage; RNA array
Summary of the method: as §1

[5] = variants of: B1; assay: self-cleavage kobs at 10000 uM GlcN6P; higher = faster cleavage; RNA array
Summary of the method: as §1

[6] = variants of: B1; assay: self-cleavage kobs at 40 uM GlcN6P; higher = faster cleavage; RNA array
Summary of the method: as §1

[7] = variants of: B1; assay: self-cleavage kobs at 160 uM GlcN6P; higher = faster cleavage; RNA array
Summary of the method: as §1

Variant | kcat [1] [s⁻¹] | KM [2] [µM] | self-cleavage kobs at 640 uM GlcN6P [3] [s⁻¹] | self-cleavage kobs at 2500 uM GlcN6P [4] [s⁻¹] | self-cleavage kobs at 10000 uM GlcN6P [5] [s⁻¹] | self-cleavage kobs at 40 uM GlcN6P [6] [s⁻¹] | self-cleavage kobs at 160 uM GlcN6P [7] [s⁻¹]
A12U G60A | 8.33e-05 ± 8e-06 | 2040 ± 700 | 2.88e-05 ± 1.4e-05 | 4.12e-05 ± 1e-05 | 7.02e-05 ± 8.4e-06 |  | 
G40A G66U | 0.000238 ± 1.9e-05 | 2050 ± 330 | 6.02e-05 ± 1.2e-05 | 0.000124 ± 2e-05 | 0.000203 ± 3.5e-05 |  | 
U30C G40A | 9.74e-05 ± 1.5e-05 | 3260 ± 1400 |  | 4.56e-05 ± 1.3e-05 | 7.27e-05 ± 1.2e-05 | < 1e-05 | 
C8G A15G |  |  | < 1e-05 | < 1e-05 | < 1e-05 | < 1e-05 | < 1e-05
U54C U55C | 0.014 ± 0.0045 | 2720 ± 1100 | 0.00279 ± 0.00037 | 0.00663 ± 0.0011 | 0.0111 ± 0.0019 | 0.000294 ± 4.1e-05 | 0.000636 ± 8.9e-05
G32C | 0.000139 ± 1.7e-06 | 3460 ± 110 | 2.26e-05 ± 1.4e-06 | 5.77e-05 ± 1.3e-06 | 0.000103 ± 1.4e-06 |  | 
G13U | 0.00254 ± 0.00046 | 3670 ± 840 | 0.000355 ± 7.3e-06 | 0.00118 ± 5e-05 | 0.00186 ± 5.8e-05 | 3.52e-05 ± 1.3e-06 | 0.000104 ± 3.4e-06
C11G U30A | 4.67e-05 ± 2.4e-06 |  |  |  |  |  | 
G38U U65A | < 1e-05 |  |  |  |  |  | < 1e-05
A14G C70U C71G | 0.000213 ± 6.9e-05 |  | 0.000185 ± 3.7e-05 | 0.00039 ± 8.8e-05 | 0.000168 ± 3.3e-05 |  | 
G38U C58U U69G | 0.000168 ± 1.3e-05 |  | 0.000157 ± 2.8e-05 | 0.000189 ± 6.3e-05 | 0.000156 ± 4.9e-05 | 0.000148 ± 4.2e-05 | 0.000207 ± 5.2e-05
U31A U47G | 0.00294 ± 0.0012 |  | 0.00063 ± 0.00014 | 0.00264 ± 0.00082 | 0.00266 ± 0.00079 | 7.57e-05 ± 1.9e-05 | 0.000353 ± 7.9e-05
A6U A15G | 0.000987 ± 0.00028 |  | 4.1e-05 ± 1.2e-05 | 0.0002 ± 3.8e-05 | 0.000441 ± 5.1e-05 |  | 
A48G U57C | 1.23e-05 ± 2.5e-06 |  |  |  |  |  | 
G40A U46A | 0.00064 ± 0.00019 |  | 0.000254 ± 5.4e-05 | 0.000422 ± 9.6e-05 | 0.000495 ± 9.6e-05 |  | 
G29A A53G | 0.00571 ± 0.0021 | 3380 ± 1700 | 0.000915 ± 0.00019 | 0.00162 ± 0.00059 | 0.00483 ± 0.00087 | 0.000136 ± 3.6e-05 | 0.000249 ± 4.3e-05
G35A U49C | < 1e-05 |  | < 1e-05 |  | < 1e-05 |  | 

Variant | kcat [1] [s⁻¹] | KM [2] [µM] | self-cleavage kobs at 640 uM GlcN6P [3] [s⁻¹] | self-cleavage kobs at 2500 uM GlcN6P [4] [s⁻¹] | self-cleavage kobs at 10000 uM GlcN6P [5] [s⁻¹] | self-cleavage kobs at 40 uM GlcN6P [6] [s⁻¹] | self-cleavage kobs at 160 uM GlcN6P [7] [s⁻¹]
U30G U45C | 0.000451 ± 9.8e-05 |  | 0.000201 ± 8.3e-05 | 0.00024 ± 7.8e-05 | 0.000435 ± 9.4e-05 |  | 
G29U C67U | 0.000984 ± 0.0002 | 1050 ± 320 | 0.000384 ± 5.4e-05 | 0.000575 ± 8.5e-05 | 0.0012 ± 0.00018 | 4.55e-05 ± 8.7e-06 | 0.000126 ± 1.3e-05
U65G C68A | 6.34e-05 ± 1e-06 | 501 ± 50 |  | 5.3e-05 ± 1.2e-05 | 6.04e-05 ± 9.2e-06 |  | 
C16G U45C | 0.0003 ± 7.1e-05 |  | 7.2e-05 ± 2.1e-05 | 0.000367 ± 9.7e-05 | 0.000243 ± 3.7e-05 |  | 
C10U A12C | 5.93e-05 ± 3.7e-06 | 3450 ± 580 |  | 2.54e-05 ± 8e-06 | 4.39e-05 ± 8.1e-06 |  | 
G37U A64C | < 1e-05 |  |  |  |  | < 1e-05 | 
C11U A53U | 0.00137 ± 0.0004 |  |  | 0.000587 ± 0.00017 | 0.00125 ± 0.00023 |  | 0.000141 ± 3.8e-05
C50A C61G | 2.25e-05 ± 7e-06 |  |  |  |  |  | 
G40A U65A | 0.00131 ± 0.0003 | 2690 ± 980 | 0.000213 ± 4.3e-05 | 0.000615 ± 0.00011 | 0.00106 ± 0.00012 | 3.89e-05 ± 8.4e-06 | 7.08e-05 ± 1.3e-05
G13U G29U C70A | 3.94e-05 ± 1.3e-05 |  |  | 4.33e-05 ± 1.9e-05 |  |  | 
C8A C58G |  |  | < 1e-05 |  |  | < 1e-05 | < 1e-05
G43C U46C |  |  | < 1e-05 | < 1e-05 |  | < 1e-05 | < 1e-05
U54C C71A | 0.00379 ± 0.00088 | 1580 ± 530 | 0.00133 ± 0.00019 | 0.00192 ± 0.00026 | 0.0039 ± 0.00049 | 0.000112 ± 1.4e-05 | 0.000296 ± 4.1e-05
A12C A42G | 0.0188 ± 0.0076 |  | 0.00579 ± 0.0016 | 0.0085 ± 0.0026 | 0.0248 ± 0.0036 | 0.00118 ± 0.00019 | 0.00222 ± 0.00053
U45G U69G | 0.000184 ± 5.8e-05 |  |  |  | 0.000152 ± 3.8e-05 |  | 
A33G C70G | 1.95e-05 ± 6.8e-06 |  |  |  |  |  | 
G38U A48G | < 1e-05 |  | < 1e-05 |  |  | < 1e-05 | 
